# US20240336657A1, “G-ALPHA-S PEPTIDE INHIBITORS AND USES THEREOF” (The Regents of the University of California, priority 2021, published 2024)
# Positions of bridges follow the written chain, without caps; N, C: chain ends. Non-standard residues stand in square brackets, D forms with d.
# Target: T1, Biotinylated His/Avi-tagged Gαs used in the RaPID selection, GppNHp-bound (human, UniProt P63092 7-394, biotin on the Avi tag (BirA co-expressed))
# T1 construct: Immobilized on streptavidin magnetic beads
# Experiment: RaPID comparison selection: peptide-mRNA-cDNA complexes on Gαs-immobilized streptavidin beads, qPCR and sequencing
# T1 sequence (P63092 other isoform, or with tags, fused parts or gaps limits assumed): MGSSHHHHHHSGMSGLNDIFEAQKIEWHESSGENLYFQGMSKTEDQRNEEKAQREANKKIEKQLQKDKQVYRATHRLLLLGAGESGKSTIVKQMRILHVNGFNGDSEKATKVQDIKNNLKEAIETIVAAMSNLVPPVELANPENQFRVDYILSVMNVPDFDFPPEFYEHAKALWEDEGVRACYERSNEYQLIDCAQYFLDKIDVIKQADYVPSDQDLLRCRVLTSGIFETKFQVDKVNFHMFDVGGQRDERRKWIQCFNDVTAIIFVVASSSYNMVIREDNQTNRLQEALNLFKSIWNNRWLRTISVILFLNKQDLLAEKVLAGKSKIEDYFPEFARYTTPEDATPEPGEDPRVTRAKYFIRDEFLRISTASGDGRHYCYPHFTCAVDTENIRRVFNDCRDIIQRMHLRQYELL
row,Binder,fold selectivity for GppNHp-bound over GDP-bound Gαs
1,{CH2CO}-[dY]SWPNQFDWFIELCG-NH2 (thioether N-14; SMILES CC[C@H](C)[C@@H]1NC(=O)[C@H](Cc2ccccc2)NC(=O)[C@H](Cc2c[nH]c3ccccc23)NC(=O)[C@H](CC(=O)O)NC(=O)[C@H](Cc2ccccc2)NC(=O)[C@H](CCC(N)=O)NC(=O)[C@H](CC(N)=O)NC(=O)[C@@H]2CCCN2C(=O)[C@H](Cc2c[nH]c3ccccc23)NC(=O)[C@H](CO)NC(=O)[C@@H](Cc2ccc(O)cc2)NC(=O)CSC[C@@H](C(=O)NCC(N)=O)NC(=O)[C@H](CC(C)C)NC(=O)[C@H](CCC(=O)O)NC1=O) [GN7],> 100 fold
2,"{CH2CO}-[dY]QFIEVWPFYLPCG-NH2 (thioether N-13; SMILES CC[C@H](C)[C@@H]1NC(=O)[C@H](Cc2ccccc2)NC(=O)[C@H](CCC(N)=O)NC(=O)[C@@H](Cc2ccc(O)cc2)NC(=O)CSC[C@@H](C(=O)NCC(N)=O)NC(=O)[C@@H]2CCCN2C(=O)[C@H](CC(C)C)NC(=O)[C@H](Cc2ccc(O)cc2)NC(=O)[C@H](Cc2ccccc2)NC(=O)[C@@H]2CCCN2C(=O)[C@H](Cc2c[nH]c3ccccc23)NC(=O)[C@H](C(C)C)NC(=O)[C@H](CCC(=O)O)NC1=O, the number is its rank in the selection) [GN1]",> 100 fold
3,{CH2CO}-[dY]QYTYPYLVIDWTCG-NH2 (thioether N-14; SMILES CC[C@H](C)[C@@H]1NC(=O)[C@H](C(C)C)NC(=O)[C@H](CC(C)C)NC(=O)[C@H](Cc2ccc(O)cc2)NC(=O)[C@@H]2CCCN2C(=O)[C@H](Cc2ccc(O)cc2)NC(=O)[C@H]([C@@H](C)O)NC(=O)[C@H](Cc2ccc(O)cc2)NC(=O)[C@H](CCC(N)=O)NC(=O)[C@@H](Cc2ccc(O)cc2)NC(=O)CSC[C@@H](C(=O)NCC(N)=O)NC(=O)[C@H]([C@@H](C)O)NC(=O)[C@H](Cc2c[nH]c3ccccc23)NC(=O)[C@H](CC(=O)O)NC1=O) [GN8],> 100 fold
4,Ac-[dY]CFYEVWPYYLPCG-NH2 (thioether (positions not given here); also: thioether partner Cys2 or Cys13 not settled) [GN6],> 100 fold
5,{CH2CO}-[dY]LTNWGVYWDQYWCG-NH2 (thioether N-14; SMILES CC(C)C[C@@H]1NC(=O)[C@@H](Cc2ccc(O)cc2)NC(=O)CSC[C@@H](C(=O)NCC(N)=O)NC(=O)[C@H](Cc2c[nH]c3ccccc23)NC(=O)[C@H](Cc2ccc(O)cc2)NC(=O)[C@H](CCC(N)=O)NC(=O)[C@H](CC(=O)O)NC(=O)[C@H](Cc2c[nH]c3ccccc23)NC(=O)[C@H](Cc2ccc(O)cc2)NC(=O)[C@H](C(C)C)NC(=O)CNC(=O)[C@H](Cc2c[nH]c3ccccc23)NC(=O)[C@H](CC(N)=O)NC(=O)[C@H]([C@@H](C)O)NC1=O) [GN11],> 100 fold
6,{CH2CO}-[dY]NWSNQFDWFLDLCG-NH2 (thioether N-14; SMILES CC(C)C[C@@H]1NC(=O)[C@H](CC(=O)O)NC(=O)[C@H](CC(C)C)NC(=O)[C@H](Cc2ccccc2)NC(=O)[C@H](Cc2c[nH]c3ccccc23)NC(=O)[C@H](CC(=O)O)NC(=O)[C@H](Cc2ccccc2)NC(=O)[C@H](CCC(N)=O)NC(=O)[C@H](CC(N)=O)NC(=O)[C@H](CO)NC(=O)[C@H](Cc2c[nH]c3ccccc23)NC(=O)[C@H](CC(N)=O)NC(=O)[C@@H](Cc2ccc(O)cc2)NC(=O)CSC[C@@H](C(=O)NCC(N)=O)NC1=O) [GN3],> 100 fold
